How the values were obtained:
LexA = assay: FRET LexA titration; conditions: 75 mM NaCl, absolute S1/2 only in figure, LexA FRET: 10 nM nucleosome, 0-100 uM LexA, 0.5x TE, 10 min, nucleosomes reconstituted by KCl step dialysis (2 M to 10 mM), 10 mM Tris-HCl pH 7.8 …, scale: % decrease of S1/2 vs unmodified nucleosome
[1] = system: Histone octamer, H2B T112C or end-label DNA FRET, unmodified H4 (Xenopus laevis); assay: FRET salt titration; conditions: C1/2 is the NaCl concentration for 50% FRET loss, LexA FRET: 10 nM nucleosome, 0-100 uM LexA, 0.5x TE, 75 mM NaCl, 10 min, nucleosomes reconstituted by KCl step dialysis (2 M to 10 mM), 10 mM Tris-HCl pH 7.8 …
[2] = system: Histone octamer with H4K77succ (Xenopus laevis); assay: FRET salt titration; conditions: LexA FRET: 10 nM nucleosome, 0-100 uM LexA, 0.5x TE, 75 mM NaCl, 10 min, nucleosomes reconstituted by KCl step dialysis (2 M to 10 mM), 10 mM Tris-HCl pH 7.8 …

601 DNA with LexA site, in H4K77succ nucleosome
binding signal (LexA): 45.5

MMTV-B
K half [1]: 0.475 M NaCl
binding signal (% decrease of C1/2 vs unmodified) ([2]; NaCl titration): 9

Widom 601, end-labelled
K half ([1]; not a protein Kd): 0.621 M NaCl
K half ([2]; C1/2 is the NaCl concentration for 50% FRET loss, 14.8% lower than unmodified): 0.529 M NaCl

— article PMC7515725
